Reference: the DeepSol protein solubility set

Assay: soluble on expression in E. coli; label from the status in PepcDB or PDB records

Sequence | soluble on expression in E. coli
METPYHQRWLAFPDAVSSYRPLESRLAGTSRATADNRTPCTGRLGTPRVFLMATDDVSKAYSSPTFDAEALLGTVISAEDPDRVLIEPWATGVDGVILDVGSGTGRWTGHLASLGHQIEGLEPATRLVELARQTHPSVTFHHGTITDLSDSPKRWAGLLAWYSLIHMGPGELPDALVALRMAVEDGGGLLMSFFSGPSLEPMYHPVATAYRWPLPELAQALETAGFQVTSSHWDPRFPHAYLTAEASLEHHHHHH | soluble
MKSYLNLKEEVWDKETCSGCGACVSVCPTENIYFKQQSPVQFDCDECACIIVPTENGESPISAEFCKVTLYDVNCGACYNACPRTKERHIFNLEKVPGRVIENYKAKSTLETKNIQSGGVVTAILANAFDEDLIDGAIVMMEDKWTMDPKSYLATSKEDVLKTAGSRYNWNVPILEVLKEAVMVKKLNKIAVVGTPCVINAVYQMMATNNDLVEPFKKAIRLKISLFCFETFDYDKMLKKLKEVEVNPWDIKKMEIDKGKLIVSTIHGNVFNFKIDEMDEYVRKGCKVCRDFTGISSDISVGNVGTPEGYSTVLVRNKWGKGFFDRAVINGYVSVEGEASIDPVISLSKKKMERKDIEFLEHHHHHH | not soluble
GMTRPAHPISRYPVPELAALPDDIRQRILEVQDKAGFVPNVFLTLAHRPDEFRAFFAYHDALMLKDGGLTKGEREMIVVATSAANQCLYCVVAHGAILRIYEKKPLVADQVAVNYLKADIPPRQRAMLDFALKVCKASHEVNEADFEALREHGFTDEDAWDIAAITAFFGLSNRMANTIGMRPNDEFFLMGRVPKSK | soluble
FFSNAEVAERLAYPQLIEALRIGLAKPCSAPLRNCHALPAQASLLQMPVWQAGAGIGVKLVTVFPGNGARGLPAVAAVFALFDGEDGRPLALLEASELTARRTACSSALAADYLARDDARRLLVVGCGTLAAHMVRAHACVRDYRHIDIWGRDPAKAAALAARLREEGYPARAADGLRAAVEAADCVSCVTTSREALVRGAWLKPGVHLDLVGAFLPSMRETDVLAVARARVVVDTRAGALEEAGDLLQAIAEGAIGREAISTELRDLLSGAGRRGDPGEITLFKSVGYALEDLVAARRVV | not soluble
GHMTKLNQESTAPKVLFTGVVDARGERAVLALGGSLAGSAAEASHLVTDRIRRTVKFLCALGRGIPILSLDWLHQSRKAGFFLPPDEYVVTDPEQEKNFGFSLQDALSRARERRLLEGYEIYVTPGVQPPPPQMGEIISCCGGTYLPSMPRSYKPQRVVITCPQDFPHCSIPLRVGLPLLSPEFLLTGVLKQEAKPEAFVLSPLEMSST | soluble
MTQTYNADAIEVLTGLEPVRRRPGMYTDTTRPNHLGQEVIDNSVDEALAGHAKRVDVILHADQSLEVIDDGRGMPVDIHPEEGVPAVELILCRLHAGGKFSNKNYQFSGGLHGVGISVVNALSKRVEVNVRRDGQVYNIAFENGEKVQDLQVVGTCGKRNTGTSVHFWPDETFFDSPRFSVSRLTHVLKAKAVLCPGVEITFKDEINNTEQRWCYQDGLNDYLAEAVNGLPTLPEKPFIGNFAGDTEAVDWALLWLPEGGELLTESYVNLIPTMQGGTHVNGLRQGLLDAMREFCEYRNILPRGVKLSAEDIWDRCAYVLSVKMQDPQFAGQTKERLSSRQCAAFVSGVVKDAFILWLNQNVQAAELLAEMAISSAQRRMRAAKKVVRKK | soluble
MGSDKIHHHHHHMKKILVVSHGAALGGSPISGLNIGRHIDKNQFEVIYAFGEEREIFDIAKKEGFKVFFVPKRSYLTIWDYAKIICREKIDIVHLNTLTSYYKYPAMAAWLCRKKIVWFVRENPEEKRCVRLGKYINALADRIVTVSLDTAKKMFYANHAKLCTIYNGIDLKFKKIEGRERLCEELGLSAREKYILCVASLEERKGVKDLVRAFLSSLPKLQGYKLLIVGEDRTKEQRYFLELKELAKDSSEVIFYGKSQKIQQLLSLSELFVLPSYWEGMARVILEAMACGLPVVASDAGGNREQVMDGVNGFLFPPRDIQALSAALEKAILGGRTQLLGKNSRELLEKNFDIKETTKKIENLYKAL | not soluble
GHHHHHHHHHHGLVPRGSHMNIQSIETYQVRLPLKTPFVTSYGRLEEKAFDLFVITDEQGNQGFGELVAFEQPDYVQETLVTERFIIQQHLIPLLLTEAIEQPQEVSTIFEEVKGHWMGKAALETAIWDLYAKRQQKSLTEFFGPTRRKIPVGISLGIQEDLPQLLKQVQLAVEKGYQRVKLKIRPGYDVEPVALIRQHFPNLPLMVDANSAYTLADLPQLQRLDHYQLAMIEQPFAADDFLDHAQLQRELKTRICLDENIRSLKDCQVALALGSCRSINLKIPRVGGIHEALKIAAFCQENDLLVWLGGMFESGVGRALNLQFASQPTFSFPGDISATERYFYEDIITEPFILEQGTMTVPQGLGIGVTLSQTNLLKYSQYQKIM | soluble
GMTGFVINTRRAPFDDWRLREALLLAFNFEFINDTVTGGVMPRITSYFSGTDLAYRPGTASGREAELLAPFAADLPPGTLEGYALPQGDGTARNRTNLRRAAQFLEQAGFRIEQGQLLGPDGAPLALRFLLRQGDSDMQTVLEIYTRALERLGIAAQIEKVDNAQYTARVAELDFDLTPFRRDLSLSPGNEQRLYWGSHSAGQPGTRNLMGAASPAIDAMIDRMLAATTEDELTAATRALDRVLTAGRYVIPIWRFD | not soluble
MFCRDTLCDTTPAVTDFLNGLSAVASKSPCSGDGALSDGHNAQSRMPVMGHVFLTGLLCVSRLARKRQLLLKRLKQSALPPRASATPSMEDVAVQSPSAAADAGDTVFVRLVLSLLGHTLMKQATTAPCAASPGDNASPQAAPLPWWPATSAPSENAEDVVYDVQCVGNEDDHAGDNVGFSEEHAPGVGHMLFTASTSVHCRIVLRSHPVAIFSPAMMSELALDAEQRASVASRTWCHGGAPGTDSSEAVDAEADAGSCVARALEVFDACVRDHEEACLRQIAEIVGSLQRLLEKPATEVQSPGGLASTGSPSDSANASASRLGGCASPLHEWTIDVPIYGVVLYIEDTHATRLERVRRLTTPLLQAATGCGNAAGGPLGPVTQVLSKLHTWCAAWTAASSTSSTSPGASSCTPGIRTITLMHVTELRQLVDSHLKNSQTAAARLPGPANPATVGYDVSQALAAPACVVHCQLGVSRSPSVVMLFYMDVLAPQLRAAASAAEAPLNIFHGLLNALVQARHRVRPNVCFSAQLLSLWRRLMQLDTPASPTRVV | not soluble
MGSSHHHHHHGKTIFVIVPTNEEQVAFLEALAKQDELNFDWQNPPTEPGQPVVILIPSDMVEWFLEMLKAKGIPFTVYVEEGGSENLYFQGGGGGGWPTEDPNELLKSQVWQKYHNQLNERKEYADKLLQDSNYIHRKNNPGE | soluble
MRLRLLSLPFILSLCAPLLPLNTLAAERIVTIGGDVTEIAYALGAGDEIVARDSTSQQPQAAQKLPDVGYMRTLNAEGILAMKPTMLLVSELAQPSLVLTQIASSGVNVVTVPGQTTPESVAMKINAVATALHQTEKGQKLIEDYQQRLAAVNKTPLPVKVLFVMSHGGLTPMAAGQNTAADAMIRAAGGSNAMQGFSRYRPLSQEGVIASAPDLLLITTDGVKALGSSENIWKLPGMALTPAGKHKRLLVVDDMALLGFGLETPQVLAQLREKMEQMQ | not soluble
MTDVEQPVSVEDQQAQAQSYYDQVLGNAYVQTAINAYTKTKEFHPLLNSTLNSAEEKVSTVGNYAAQKAYDGYNSYYVKPKNTAYEAVSYGTERAKTAVESGKQAAIVGGTFGIGAAVVLTQFSLALSAGGAALVLEQVDSAKKLGSSAISTIKEAELAVEHRIFSALHQAQRIAMVPVEKITENTNSLLDILDGAVQKGLNIEVPPSVNLTIGQRVKNLASLIVQGVSNKAHDHVIDPINERARNYLEQLSQSFVLLDIVREKKTWVIEKSNELSTSVFDFKKTLEEEAQKYKVAPEEMLMKHIQSTSEQLSTQLQSLREKGQNVFGDGTKIDSTIDYLENLKKNFTDAEDVYKVRDEVLNEGRQRIAELSTWTTSLLIISAEWQFEPEDLLIEELYFDAPPPVRTRNLYRNRA | not soluble
MQGQGDLFESTDWQEVRQGKLFYQPNFLSQQEADTYFSTLMSTLPWQQERITIFGKSVLQPRLQTWHGDAPYTYSGLTMAPHPWTSELSSLKARCESLANTPFNSVLANLYRDGQDSMGWHQDNEPELGRNPVIASLNLGDTRRFVLRNLHCKTQIEYELGHGALLIMAGELQHHWRHCVPKTAKPKGERINLTFRHILNYLEHHHHHH | soluble
MSLRSMFMYKSHIPEDCEEEAQITAAKLILLVDDDPVFRRMTKGYLQKYGYQVIEAENGLDGLRKLRDHEPDLILCDLSMPVLNGIEFVEEVSSSYPSLPLVVVSATEEMADVAKALRFGIKDFLPKPITNHSHLASAIEKVLANDDHQRDFASCWYGADRQGSIPEEQELHWHLQYLKDNPNAAKELLEALLPEKDSQLGSWKCSYRLLQSAELMPLVFDYAWLMNGQFVFYVVDAASHRECGAASTLLVRALFHDYLRNLRNFSVELKDLAEIIERGIHCSECIGKVSALFGVADLADGTLSLLPAGLDCQWSNGYVHNRITSGVQLGDNSLRNFITKDLPIRAACQISLSKPSAYSFTLDLYQGEGHHHHHH | soluble
TQGERRQAEQLAVQTARTISYMPPVKELIERKDGHAAQTQEVIEQMKEQTGAFAIYVLNEKGDIRSASGKSGLKKLERSREILFGGSHVSETKADGRRVIRGSAPIIKEQKGYSQVIGSVSVDFLQT | not soluble
MKSSPKSLKMRDNLLDGTFVVIDLEATGFDVEKSEVIDLAAVRVEGGIITEKFSTLVYPGYFIPERIKKLTGITNAMLVGQPTIEEVLPEFLEFVGDNIVVGHFVEQDIKFINKYTKQYRGKKFRNPSLCTLKLARKVFPGLKKYSLKEIAENFGFETNGVHRALKDATLTAEIFIKILEELWFKYGIGDYYSLKRLEKGKF | soluble
MGSDKIHHHHHHMPIKVSPVAGSRFYIGSAPVDVPDTDVTEADFSAVTWIEVGQYETMGNSGDSAQGNTVNLLNRRRTYNWKGSRQAPQRSDNFALNTSDPGQLAMIAAEATDFNYPFKVELNGAPIPKSATAIITIASPGVVTWTGHNLAANTAVKFSTTGALPTGLTAGTSYYVKTVLDADTFTLSATKGGPVIATTGTQSGTHTATTIPSGPQRLFMGQVLAAEEGMGGANNAQMLNCTVLPNTNYVRVAALG | not soluble
MGSDKIHHHHHHMLAENLKSLYLDEWNRYVGHEFVRRMEHGDLPLENFKFYLVQDSLYVEEMLRAVMRSTELMPNDMAIRILSSVVLGRDKGMETHAFLEKELGVEKSSRMTMTTYSYTRHLRYSSTIGWPQFLAAWIPCMWGYSEIGKTVLNSPNRYYRTWAEFYASKEYADRVSVILEAMDRFNGDITEIKDYFLISLKFEQMFWQAAFDMEKPI | not soluble
MGSDKIHHHHHHAQEERNQGIIWSYLHGWEYGIKAGFSIGGTSPLPLPEEIRKIDSYAPGGLAISIEGNATKWFDTKWGMTVGVRLENKNMTTEATVKNYGMKIINTNGGELQGLWTGGVKTKVKNSYLTIPVVANYKVSKRWKVSAGPYVSYLIERNFSGHVYEGHLRTPDQTGSRVDFTGESIATYDFSDNLRKFQWGLQLGGEWRAFKHLNVYADLTWGLNDIFKKDFDTISFAMYPIYLNIGFGYAF | not soluble
MILIFEEHRMQLSSEQCDFFFTNGYLVINNFFSESVCDLLKQRIETLLENNQAEIPKTIFSTQTNEHAKKQYFLDSGDKIHYFFEPGAFDEAGDWLRPFNQSINKIGHALHELDPVFRQYSRDDRIKKIAHQLGLKTLGLVQSMYIFKQPGIGAEVLCHQDSTYIFGEDSDALGFWFAIEDATLENGCLEVIPSPCTTPLKQRMFRRENEIYFENFDSSPWPEENSVPLPVKKGALIILHGRVPHKSQANFSNQSRHAYTLHLVDISLPYPEKNWLQWPNGIPCLLEHHHHHH | soluble
